biological target: T1, CD3ε homodimer protein (human, UniProt P07766 23-126, limits assumed, sulfo-tag or biotin label in the ECL assays; amine-coupled to the chip in SPR); assay: SPR Biacore T200; CD3ε homodimer on CM4 chip;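 also: Single-residue variant antibodies injected as analyte over CD3ε homodimer immobilized by amine coupling, run at 25 °C in HBS-EP+ buffer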
T1 construct: also called human CD3ε homodimer protein; CD3 (CD3ε)
T1 sequence (P07766 23-126 limits assumed): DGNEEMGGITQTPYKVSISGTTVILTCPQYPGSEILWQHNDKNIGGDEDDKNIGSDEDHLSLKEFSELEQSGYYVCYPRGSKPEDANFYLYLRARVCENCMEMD

Row | Binder | ratio of amounts bound Z=Y/X (altered form / CE115HA000)
1 | CE115HA000 G100bD one-arm antibody (antibody, human IgG1, kappa, L234A L235A, N297A, name in Kabat numbering) heavy: QVQLVESGGGVVQPGRSLRLSCAASGFTFSNAWMHWVRQAPGKGLEWVAQIKAKSNNYATYYAESVKGRFTISRDDSKNSLYLQMNSLKTEDTAVYYCRYVHYGAYYDVDAWGQGTTVTVSSASTKGPSVFPLAPSSKSTSGGTAALGCLVKDYFPEPVTVSWNSGALTSGVHTFPAVLQSSGLYSLSSVVTVPSSSLGTQTYICNVNHKPSNTKVDKKVEPKSCDKTHTCPPCPAPEAAGGPSVFLFPPKPKDTLMISRTPEVTCVVVDVSHEDPEVKFNWYVDGVEVHNAKTKPREEQYASTYRVVSVLTVLHQDWLNGKEYKCKVSNKALPAPIEKTISKAKGQPREPQVYTLPPSRCELTKNQVSLSCAVKGFYPSDIAVEWESNGQPENNYKTTPPVLDSDGSFFLVSKLTVDKSRWQQGNVFSCSVMHEALHNHYTQKSLSLSPDYKDDDDK EPKSSDKTHTCPPCPAPELLGGPSVFLFPPKPKDTLMISRTPEVTCVVVDVSHEDPEVKFNWYVDGVEVHNAKTKPREEQYNSTYRVVSVLTVLHQDWLNGKEYKCKVSNKALPAPIEKTISKAKGQPREPQVCTLPPSRDELTKNQVSLWCLVKGFYPSDIAVEWESNGQPENNYKTTPPVLDSDGSFFLYSKLTVDKSRWQQGNVFSCSVMHEALHNRYTQKSLSLSP light: DIVMTQSPLSLPVTPGEPASISCRSSQSLVHSNRNTYLHWYQQKPGQAPRLLIYKVSNRFSGVPDRFSGSGSGTDFTLKISRVEAEDVGVYYCGQGTQVPYTFGQGTKLEIKRTVAAPSVFIFPPSDEQLKSGTASVVCLLNNFYPREAKVQWKVDNALQSGNSQESVTEQDSKDSTYSLSSTLTLSKADYEKHKVYACEVTHQGLSSPVTKSFNRGEC | 0.27
2 | CE115HA000 G100bF one-arm antibody (antibody, human IgG1, kappa, L234A L235A, N297A, name in Kabat numbering) heavy: QVQLVESGGGVVQPGRSLRLSCAASGFTFSNAWMHWVRQAPGKGLEWVAQIKAKSNNYATYYAESVKGRFTISRDDSKNSLYLQMNSLKTEDTAVYYCRYVHYGAYYFVDAWGQGTTVTVSSASTKGPSVFPLAPSSKSTSGGTAALGCLVKDYFPEPVTVSWNSGALTSGVHTFPAVLQSSGLYSLSSVVTVPSSSLGTQTYICNVNHKPSNTKVDKKVEPKSCDKTHTCPPCPAPEAAGGPSVFLFPPKPKDTLMISRTPEVTCVVVDVSHEDPEVKFNWYVDGVEVHNAKTKPREEQYASTYRVVSVLTVLHQDWLNGKEYKCKVSNKALPAPIEKTISKAKGQPREPQVYTLPPSRCELTKNQVSLSCAVKGFYPSDIAVEWESNGQPENNYKTTPPVLDSDGSFFLVSKLTVDKSRWQQGNVFSCSVMHEALHNHYTQKSLSLSPDYKDDDDK EPKSSDKTHTCPPCPAPELLGGPSVFLFPPKPKDTLMISRTPEVTCVVVDVSHEDPEVKFNWYVDGVEVHNAKTKPREEQYNSTYRVVSVLTVLHQDWLNGKEYKCKVSNKALPAPIEKTISKAKGQPREPQVCTLPPSRDELTKNQVSLWCLVKGFYPSDIAVEWESNGQPENNYKTTPPVLDSDGSFFLYSKLTVDKSRWQQGNVFSCSVMHEALHNRYTQKSLSLSP light: DIVMTQSPLSLPVTPGEPASISCRSSQSLVHSNRNTYLHWYQQKPGQAPRLLIYKVSNRFSGVPDRFSGSGSGTDFTLKISRVEAEDVGVYYCGQGTQVPYTFGQGTKLEIKRTVAAPSVFIFPPSDEQLKSGTASVVCLLNNFYPREAKVQWKVDNALQSGNSQESVTEQDSKDSTYSLSSTLTLSKADYEKHKVYACEVTHQGLSSPVTKSFNRGEC | 0.3
3 | CE115HA000 G100bS one-arm antibody (antibody, human IgG1, kappa, L234A L235A, N297A, name in Kabat numbering) heavy: QVQLVESGGGVVQPGRSLRLSCAASGFTFSNAWMHWVRQAPGKGLEWVAQIKAKSNNYATYYAESVKGRFTISRDDSKNSLYLQMNSLKTEDTAVYYCRYVHYGAYYSVDAWGQGTTVTVSSASTKGPSVFPLAPSSKSTSGGTAALGCLVKDYFPEPVTVSWNSGALTSGVHTFPAVLQSSGLYSLSSVVTVPSSSLGTQTYICNVNHKPSNTKVDKKVEPKSCDKTHTCPPCPAPEAAGGPSVFLFPPKPKDTLMISRTPEVTCVVVDVSHEDPEVKFNWYVDGVEVHNAKTKPREEQYASTYRVVSVLTVLHQDWLNGKEYKCKVSNKALPAPIEKTISKAKGQPREPQVYTLPPSRCELTKNQVSLSCAVKGFYPSDIAVEWESNGQPENNYKTTPPVLDSDGSFFLVSKLTVDKSRWQQGNVFSCSVMHEALHNHYTQKSLSLSPDYKDDDDK EPKSSDKTHTCPPCPAPELLGGPSVFLFPPKPKDTLMISRTPEVTCVVVDVSHEDPEVKFNWYVDGVEVHNAKTKPREEQYNSTYRVVSVLTVLHQDWLNGKEYKCKVSNKALPAPIEKTISKAKGQPREPQVCTLPPSRDELTKNQVSLWCLVKGFYPSDIAVEWESNGQPENNYKTTPPVLDSDGSFFLYSKLTVDKSRWQQGNVFSCSVMHEALHNRYTQKSLSLSP light: DIVMTQSPLSLPVTPGEPASISCRSSQSLVHSNRNTYLHWYQQKPGQAPRLLIYKVSNRFSGVPDRFSGSGSGTDFTLKISRVEAEDVGVYYCGQGTQVPYTFGQGTKLEIKRTVAAPSVFIFPPSDEQLKSGTASVVCLLNNFYPREAKVQWKVDNALQSGNSQESVTEQDSKDSTYSLSSTLTLSKADYEKHKVYACEVTHQGLSSPVTKSFNRGEC | 0.52

Now from value to binder:

Row | ratio of amounts bound Z=Y/X (altered form / CE115HA000) | Binder
4 | 0.23 | CE115HA000 G100bY one-arm antibody (antibody, human IgG1, kappa, L234A L235A, N297A, name in Kabat numbering) heavy: QVQLVESGGGVVQPGRSLRLSCAASGFTFSNAWMHWVRQAPGKGLEWVAQIKAKSNNYATYYAESVKGRFTISRDDSKNSLYLQMNSLKTEDTAVYYCRYVHYGAYYYVDAWGQGTTVTVSSASTKGPSVFPLAPSSKSTSGGTAALGCLVKDYFPEPVTVSWNSGALTSGVHTFPAVLQSSGLYSLSSVVTVPSSSLGTQTYICNVNHKPSNTKVDKKVEPKSCDKTHTCPPCPAPEAAGGPSVFLFPPKPKDTLMISRTPEVTCVVVDVSHEDPEVKFNWYVDGVEVHNAKTKPREEQYASTYRVVSVLTVLHQDWLNGKEYKCKVSNKALPAPIEKTISKAKGQPREPQVYTLPPSRCELTKNQVSLSCAVKGFYPSDIAVEWESNGQPENNYKTTPPVLDSDGSFFLVSKLTVDKSRWQQGNVFSCSVMHEALHNHYTQKSLSLSPDYKDDDDK EPKSSDKTHTCPPCPAPELLGGPSVFLFPPKPKDTLMISRTPEVTCVVVDVSHEDPEVKFNWYVDGVEVHNAKTKPREEQYNSTYRVVSVLTVLHQDWLNGKEYKCKVSNKALPAPIEKTISKAKGQPREPQVCTLPPSRDELTKNQVSLWCLVKGFYPSDIAVEWESNGQPENNYKTTPPVLDSDGSFFLYSKLTVDKSRWQQGNVFSCSVMHEALHNRYTQKSLSLSP light: DIVMTQSPLSLPVTPGEPASISCRSSQSLVHSNRNTYLHWYQQKPGQAPRLLIYKVSNRFSGVPDRFSGSGSGTDFTLKISRVEAEDVGVYYCGQGTQVPYTFGQGTKLEIKRTVAAPSVFIFPPSDEQLKSGTASVVCLLNNFYPREAKVQWKVDNALQSGNSQESVTEQDSKDSTYSLSSTLTLSKADYEKHKVYACEVTHQGLSSPVTKSFNRGEC
5 | 0.26 | CE115HA000 G100bE one-arm antibody (antibody, human IgG1, kappa, L234A L235A, N297A, name in Kabat numbering) heavy: QVQLVESGGGVVQPGRSLRLSCAASGFTFSNAWMHWVRQAPGKGLEWVAQIKAKSNNYATYYAESVKGRFTISRDDSKNSLYLQMNSLKTEDTAVYYCRYVHYGAYYEVDAWGQGTTVTVSSASTKGPSVFPLAPSSKSTSGGTAALGCLVKDYFPEPVTVSWNSGALTSGVHTFPAVLQSSGLYSLSSVVTVPSSSLGTQTYICNVNHKPSNTKVDKKVEPKSCDKTHTCPPCPAPEAAGGPSVFLFPPKPKDTLMISRTPEVTCVVVDVSHEDPEVKFNWYVDGVEVHNAKTKPREEQYASTYRVVSVLTVLHQDWLNGKEYKCKVSNKALPAPIEKTISKAKGQPREPQVYTLPPSRCELTKNQVSLSCAVKGFYPSDIAVEWESNGQPENNYKTTPPVLDSDGSFFLVSKLTVDKSRWQQGNVFSCSVMHEALHNHYTQKSLSLSPDYKDDDDK EPKSSDKTHTCPPCPAPELLGGPSVFLFPPKPKDTLMISRTPEVTCVVVDVSHEDPEVKFNWYVDGVEVHNAKTKPREEQYNSTYRVVSVLTVLHQDWLNGKEYKCKVSNKALPAPIEKTISKAKGQPREPQVCTLPPSRDELTKNQVSLWCLVKGFYPSDIAVEWESNGQPENNYKTTPPVLDSDGSFFLYSKLTVDKSRWQQGNVFSCSVMHEALHNRYTQKSLSLSP light: DIVMTQSPLSLPVTPGEPASISCRSSQSLVHSNRNTYLHWYQQKPGQAPRLLIYKVSNRFSGVPDRFSGSGSGTDFTLKISRVEAEDVGVYYCGQGTQVPYTFGQGTKLEIKRTVAAPSVFIFPPSDEQLKSGTASVVCLLNNFYPREAKVQWKVDNALQSGNSQESVTEQDSKDSTYSLSSTLTLSKADYEKHKVYACEVTHQGLSSPVTKSFNRGEC
6 | 0.27 | CE115HA000 G100bL one-arm antibody (antibody, human IgG1, kappa, L234A L235A, N297A, name in Kabat numbering) heavy: QVQLVESGGGVVQPGRSLRLSCAASGFTFSNAWMHWVRQAPGKGLEWVAQIKAKSNNYATYYAESVKGRFTISRDDSKNSLYLQMNSLKTEDTAVYYCRYVHYGAYYLVDAWGQGTTVTVSSASTKGPSVFPLAPSSKSTSGGTAALGCLVKDYFPEPVTVSWNSGALTSGVHTFPAVLQSSGLYSLSSVVTVPSSSLGTQTYICNVNHKPSNTKVDKKVEPKSCDKTHTCPPCPAPEAAGGPSVFLFPPKPKDTLMISRTPEVTCVVVDVSHEDPEVKFNWYVDGVEVHNAKTKPREEQYASTYRVVSVLTVLHQDWLNGKEYKCKVSNKALPAPIEKTISKAKGQPREPQVYTLPPSRCELTKNQVSLSCAVKGFYPSDIAVEWESNGQPENNYKTTPPVLDSDGSFFLVSKLTVDKSRWQQGNVFSCSVMHEALHNHYTQKSLSLSPDYKDDDDK EPKSSDKTHTCPPCPAPELLGGPSVFLFPPKPKDTLMISRTPEVTCVVVDVSHEDPEVKFNWYVDGVEVHNAKTKPREEQYNSTYRVVSVLTVLHQDWLNGKEYKCKVSNKALPAPIEKTISKAKGQPREPQVCTLPPSRDELTKNQVSLWCLVKGFYPSDIAVEWESNGQPENNYKTTPPVLDSDGSFFLYSKLTVDKSRWQQGNVFSCSVMHEALHNRYTQKSLSLSP light: DIVMTQSPLSLPVTPGEPASISCRSSQSLVHSNRNTYLHWYQQKPGQAPRLLIYKVSNRFSGVPDRFSGSGSGTDFTLKISRVEAEDVGVYYCGQGTQVPYTFGQGTKLEIKRTVAAPSVFIFPPSDEQLKSGTASVVCLLNNFYPREAKVQWKVDNALQSGNSQESVTEQDSKDSTYSLSSTLTLSKADYEKHKVYACEVTHQGLSSPVTKSFNRGEC
